Experimental data as given in patent publication US20230365662A1.
Where “and” joins values, the source holds several entries; their conditions need not be identical. Equal entries are not always repeated.

Biological target: HRgpA-6H (Porphyromonas gingivalis) (UniProt P28784)
Test: ELISA, Fab FASEBA supernatant on coated HRgpA-6H

UniProt P28784, sequence (P28784 228-991 limits assumed): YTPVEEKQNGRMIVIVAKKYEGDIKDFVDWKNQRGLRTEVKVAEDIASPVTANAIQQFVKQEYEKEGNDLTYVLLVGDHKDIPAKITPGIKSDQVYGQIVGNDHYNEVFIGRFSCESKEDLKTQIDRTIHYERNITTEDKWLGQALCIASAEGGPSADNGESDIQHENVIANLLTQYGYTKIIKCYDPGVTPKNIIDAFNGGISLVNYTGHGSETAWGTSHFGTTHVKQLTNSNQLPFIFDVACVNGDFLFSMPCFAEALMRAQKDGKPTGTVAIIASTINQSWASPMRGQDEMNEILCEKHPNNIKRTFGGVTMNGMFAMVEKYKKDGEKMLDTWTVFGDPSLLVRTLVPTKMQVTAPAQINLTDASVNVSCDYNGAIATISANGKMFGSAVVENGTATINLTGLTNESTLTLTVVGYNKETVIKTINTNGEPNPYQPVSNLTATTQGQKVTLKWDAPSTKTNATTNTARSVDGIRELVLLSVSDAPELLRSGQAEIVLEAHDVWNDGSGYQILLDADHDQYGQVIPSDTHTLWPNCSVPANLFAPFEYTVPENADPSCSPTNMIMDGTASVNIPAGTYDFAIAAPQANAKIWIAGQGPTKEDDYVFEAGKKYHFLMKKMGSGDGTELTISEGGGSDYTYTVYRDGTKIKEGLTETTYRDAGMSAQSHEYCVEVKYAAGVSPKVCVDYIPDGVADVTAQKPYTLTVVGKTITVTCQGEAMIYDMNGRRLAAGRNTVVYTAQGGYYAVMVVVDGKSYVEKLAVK

Binder	OD450nm	Ratio OD(Variant)/OD(WT)
parental mouse (KB001) Fab FASEBA, VL variant A56P (Fab, V domains shown) VH: EVQLKQSGPGLVAPSQSLSITCTVSGFSLSIYSVHWVRQPPGKGLEWLGMIWGGGSSDYNSALKSRLSISKDNSKSQVFLKMNSLQTDDTAMYYCARNGNFYAMDYWGQGTSVTVSS VL: QIVLTQSPAIMSASLGERVTMTCTASSSVSSSFLHWYQQKPGSSPQLWIYSTSNLPSGVPARFSGSGSGTSYSLTISSMEAEDAATYYCHQYHHSPYIYTFGGGTKLEIK	0.748 OD450nm	0.917 ratio to WT
parental mouse (KB001) Fab FASEBA, VL variant S57I (Fab, V domains shown) VH: EVQLKQSGPGLVAPSQSLSITCTVSGFSLSIYSVHWVRQPPGKGLEWLGMIWGGGSSDYNSALKSRLSISKDNSKSQVFLKMNSLQTDDTAMYYCARNGNFYAMDYWGQGTSVTVSS VL: QIVLTQSPAIMSASLGERVTMTCTASSSVSSSFLHWYQQKPGSSPQLWIYSTSNLAIGVPARFSGSGSGTSYSLTISSMEAEDAATYYCHQYHHSPYIYTFGGGTKLEIK	0.791 OD450nm	0.97 ratio to WT
parental mouse (KB001) Fab FASEBA, VL variant S57M (Fab, V domains shown) VH: EVQLKQSGPGLVAPSQSLSITCTVSGFSLSIYSVHWVRQPPGKGLEWLGMIWGGGSSDYNSALKSRLSISKDNSKSQVFLKMNSLQTDDTAMYYCARNGNFYAMDYWGQGTSVTVSS VL: QIVLTQSPAIMSASLGERVTMTCTASSSVSSSFLHWYQQKPGSSPQLWIYSTSNLAMGVPARFSGSGSGTSYSLTISSMEAEDAATYYCHQYHHSPYIYTFGGGTKLEIK	0.745 OD450nm	0.914 ratio to WT
parental mouse (KB001) Fab FASEBA, VL variant S57Q (Fab, V domains shown) VH: EVQLKQSGPGLVAPSQSLSITCTVSGFSLSIYSVHWVRQPPGKGLEWLGMIWGGGSSDYNSALKSRLSISKDNSKSQVFLKMNSLQTDDTAMYYCARNGNFYAMDYWGQGTSVTVSS VL: QIVLTQSPAIMSASLGERVTMTCTASSSVSSSFLHWYQQKPGSSPQLWIYSTSNLAQGVPARFSGSGSGTSYSLTISSMEAEDAATYYCHQYHHSPYIYTFGGGTKLEIK	0.658 OD450nm	0.807 ratio to WT
parental mouse (KB001) Fab FASEBA, VL variant H93N (Fab, V domains shown) VH: EVQLKQSGPGLVAPSQSLSITCTVSGFSLSIYSVHWVRQPPGKGLEWLGMIWGGGSSDYNSALKSRLSISKDNSKSQVFLKMNSLQTDDTAMYYCARNGNFYAMDYWGQGTSVTVSS VL: QIVLTQSPAIMSASLGERVTMTCTASSSVSSSFLHWYQQKPGSSPQLWIYSTSNLASGVPARFSGSGSGTSYSLTISSMEAEDAATYYCHQYNHSPYIYTFGGGTKLEIK	0.857 OD450nm	0.91 ratio to WT
parental mouse (KB001) Fab FASEBA, VL variant S57R (Fab, V domains shown) VH: EVQLKQSGPGLVAPSQSLSITCTVSGFSLSIYSVHWVRQPPGKGLEWLGMIWGGGSSDYNSALKSRLSISKDNSKSQVFLKMNSLQTDDTAMYYCARNGNFYAMDYWGQGTSVTVSS VL: QIVLTQSPAIMSASLGERVTMTCTASSSVSSSFLHWYQQKPGSSPQLWIYSTSNLARGVPARFSGSGSGTSYSLTISSMEAEDAATYYCHQYHHSPYIYTFGGGTKLEIK	0.746 OD450nm	0.915 ratio to WT
parental mouse (KB001) Fab FASEBA, VL variant S57F (Fab, V domains shown) VH: EVQLKQSGPGLVAPSQSLSITCTVSGFSLSIYSVHWVRQPPGKGLEWLGMIWGGGSSDYNSALKSRLSISKDNSKSQVFLKMNSLQTDDTAMYYCARNGNFYAMDYWGQGTSVTVSS VL: QIVLTQSPAIMSASLGERVTMTCTASSSVSSSFLHWYQQKPGSSPQLWIYSTSNLAFGVPARFSGSGSGTSYSLTISSMEAEDAATYYCHQYHHSPYIYTFGGGTKLEIK	0.785 OD450nm and 0.787 OD450nm and 0.797 OD450nm	0.963 ratio to WT and 0.965 ratio to WT and 0.977 ratio to WT
parental mouse (KB001) Fab FASEBA, VL variant S57N (Fab, V domains shown) VH: EVQLKQSGPGLVAPSQSLSITCTVSGFSLSIYSVHWVRQPPGKGLEWLGMIWGGGSSDYNSALKSRLSISKDNSKSQVFLKMNSLQTDDTAMYYCARNGNFYAMDYWGQGTSVTVSS VL: QIVLTQSPAIMSASLGERVTMTCTASSSVSSSFLHWYQQKPGSSPQLWIYSTSNLANGVPARFSGSGSGTSYSLTISSMEAEDAATYYCHQYHHSPYIYTFGGGTKLEIK	0.813 OD450nm	0.997 ratio to WT
parental mouse (KB001) Fab FASEBA, VL variant Y92N (Fab, V domains shown) VH: EVQLKQSGPGLVAPSQSLSITCTVSGFSLSIYSVHWVRQPPGKGLEWLGMIWGGGSSDYNSALKSRLSISKDNSKSQVFLKMNSLQTDDTAMYYCARNGNFYAMDYWGQGTSVTVSS VL: QIVLTQSPAIMSASLGERVTMTCTASSSVSSSFLHWYQQKPGSSPQLWIYSTSNLASGVPARFSGSGSGTSYSLTISSMEAEDAATYYCHQNHHSPYIYTFGGGTKLEIK	0.773 OD450nm	0.821 ratio to WT
parental mouse (KB001) Fab FASEBA, VL variant Q91M (Fab, V domains shown) VH: EVQLKQSGPGLVAPSQSLSITCTVSGFSLSIYSVHWVRQPPGKGLEWLGMIWGGGSSDYNSALKSRLSISKDNSKSQVFLKMNSLQTDDTAMYYCARNGNFYAMDYWGQGTSVTVSS VL: QIVLTQSPAIMSASLGERVTMTCTASSSVSSSFLHWYQQKPGSSPQLWIYSTSNLASGVPARFSGSGSGTSYSLTISSMEAEDAATYYCHMYHHSPYIYTFGGGTKLEIK	0.757 OD450nm	0.879 ratio to WT
parental mouse (KB001) Fab FASEBA, VL variant H90W (Fab, V domains shown) VH: EVQLKQSGPGLVAPSQSLSITCTVSGFSLSIYSVHWVRQPPGKGLEWLGMIWGGGSSDYNSALKSRLSISKDNSKSQVFLKMNSLQTDDTAMYYCARNGNFYAMDYWGQGTSVTVSS VL: QIVLTQSPAIMSASLGERVTMTCTASSSVSSSFLHWYQQKPGSSPQLWIYSTSNLASGVPARFSGSGSGTSYSLTISSMEAEDAATYYCWQYHHSPYIYTFGGGTKLEIK	0.763 OD450nm	0.886 ratio to WT
parental mouse (KB001) Fab FASEBA, VL variant S57L (Fab, V domains shown) VH: EVQLKQSGPGLVAPSQSLSITCTVSGFSLSIYSVHWVRQPPGKGLEWLGMIWGGGSSDYNSALKSRLSISKDNSKSQVFLKMNSLQTDDTAMYYCARNGNFYAMDYWGQGTSVTVSS VL: QIVLTQSPAIMSASLGERVTMTCTASSSVSSSFLHWYQQKPGSSPQLWIYSTSNLALGVPARFSGSGSGTSYSLTISSMEAEDAATYYCHQYHHSPYIYTFGGGTKLEIK	0.781 OD450nm	0.958 ratio to WT
parental mouse (KB001) Fab FASEBA, VL variant H94Y (Fab, V domains shown) VH: EVQLKQSGPGLVAPSQSLSITCTVSGFSLSIYSVHWVRQPPGKGLEWLGMIWGGGSSDYNSALKSRLSISKDNSKSQVFLKMNSLQTDDTAMYYCARNGNFYAMDYWGQGTSVTVSS VL: QIVLTQSPAIMSASLGERVTMTCTASSSVSSSFLHWYQQKPGSSPQLWIYSTSNLASGVPARFSGSGSGTSYSLTISSMEAEDAATYYCHQYHYSPYIYTFGGGTKLEIK	0.865 OD450nm	0.942 ratio to WT
parental mouse (KB001) Fab FASEBA, VL variant S57E (Fab, V domains shown) VH: EVQLKQSGPGLVAPSQSLSITCTVSGFSLSIYSVHWVRQPPGKGLEWLGMIWGGGSSDYNSALKSRLSISKDNSKSQVFLKMNSLQTDDTAMYYCARNGNFYAMDYWGQGTSVTVSS VL: QIVLTQSPAIMSASLGERVTMTCTASSSVSSSFLHWYQQKPGSSPQLWIYSTSNLAEGVPARFSGSGSGTSYSLTISSMEAEDAATYYCHQYHHSPYIYTFGGGTKLEIK	0.751 OD450nm	0.921 ratio to WT
parental mouse (KB001) Fab FASEBA, VL variant Y92D (Fab, V domains shown) VH: EVQLKQSGPGLVAPSQSLSITCTVSGFSLSIYSVHWVRQPPGKGLEWLGMIWGGGSSDYNSALKSRLSISKDNSKSQVFLKMNSLQTDDTAMYYCARNGNFYAMDYWGQGTSVTVSS VL: QIVLTQSPAIMSASLGERVTMTCTASSSVSSSFLHWYQQKPGSSPQLWIYSTSNLASGVPARFSGSGSGTSYSLTISSMEAEDAATYYCHQDHHSPYIYTFGGGTKLEIK	0.758 OD450nm	0.805 ratio to WT
parental mouse (KB001) Fab FASEBA, VL variant H90L (Fab, V domains shown) VH: EVQLKQSGPGLVAPSQSLSITCTVSGFSLSIYSVHWVRQPPGKGLEWLGMIWGGGSSDYNSALKSRLSISKDNSKSQVFLKMNSLQTDDTAMYYCARNGNFYAMDYWGQGTSVTVSS VL: QIVLTQSPAIMSASLGERVTMTCTASSSVSSSFLHWYQQKPGSSPQLWIYSTSNLASGVPARFSGSGSGTSYSLTISSMEAEDAATYYCLQYHHSPYIYTFGGGTKLEIK	0.785 OD450nm and 0.694 OD450nm	0.911 ratio to WT and 0.806 ratio to WT
parental mouse (KB001) Fab FASEBA, VL variant S57K (Fab, V domains shown) VH: EVQLKQSGPGLVAPSQSLSITCTVSGFSLSIYSVHWVRQPPGKGLEWLGMIWGGGSSDYNSALKSRLSISKDNSKSQVFLKMNSLQTDDTAMYYCARNGNFYAMDYWGQGTSVTVSS VL: QIVLTQSPAIMSASLGERVTMTCTASSSVSSSFLHWYQQKPGSSPQLWIYSTSNLAKGVPARFSGSGSGTSYSLTISSMEAEDAATYYCHQYHHSPYIYTFGGGTKLEIK	0.712 OD450nm	0.873 ratio to WT
parental mouse (KB001) Fab FASEBA, VL variant S57W (Fab, V domains shown) VH: EVQLKQSGPGLVAPSQSLSITCTVSGFSLSIYSVHWVRQPPGKGLEWLGMIWGGGSSDYNSALKSRLSISKDNSKSQVFLKMNSLQTDDTAMYYCARNGNFYAMDYWGQGTSVTVSS VL: QIVLTQSPAIMSASLGERVTMTCTASSSVSSSFLHWYQQKPGSSPQLWIYSTSNLAWGVPARFSGSGSGTSYSLTISSMEAEDAATYYCHQYHHSPYIYTFGGGTKLEIK	0.784 OD450nm	0.961 ratio to WT
parental mouse (KB001) Fab FASEBA, VL variant A56M (Fab, V domains shown) VH: EVQLKQSGPGLVAPSQSLSITCTVSGFSLSIYSVHWVRQPPGKGLEWLGMIWGGGSSDYNSALKSRLSISKDNSKSQVFLKMNSLQTDDTAMYYCARNGNFYAMDYWGQGTSVTVSS VL: QIVLTQSPAIMSASLGERVTMTCTASSSVSSSFLHWYQQKPGSSPQLWIYSTSNLMSGVPARFSGSGSGTSYSLTISSMEAEDAATYYCHQYHHSPYIYTFGGGTKLEIK	0.802 OD450nm and 0.701 OD450nm	0.983 ratio to WT and 0.86 ratio to WT
parental mouse (KB001) Fab FASEBA, VL variant Q91E (Fab, V domains shown) VH: EVQLKQSGPGLVAPSQSLSITCTVSGFSLSIYSVHWVRQPPGKGLEWLGMIWGGGSSDYNSALKSRLSISKDNSKSQVFLKMNSLQTDDTAMYYCARNGNFYAMDYWGQGTSVTVSS VL: QIVLTQSPAIMSASLGERVTMTCTASSSVSSSFLHWYQQKPGSSPQLWIYSTSNLASGVPARFSGSGSGTSYSLTISSMEAEDAATYYCHEYHHSPYIYTFGGGTKLEIK	0.709 OD450nm and 0.694 OD450nm and 0.701 OD450nm	0.823 ratio to WT and 0.806 ratio to WT and 0.814 ratio to WT
parental mouse (KB001) Fab FASEBA, VL variant S57A (Fab, V domains shown) VH: EVQLKQSGPGLVAPSQSLSITCTVSGFSLSIYSVHWVRQPPGKGLEWLGMIWGGGSSDYNSALKSRLSISKDNSKSQVFLKMNSLQTDDTAMYYCARNGNFYAMDYWGQGTSVTVSS VL: QIVLTQSPAIMSASLGERVTMTCTASSSVSSSFLHWYQQKPGSSPQLWIYSTSNLAAGVPARFSGSGSGTSYSLTISSMEAEDAATYYCHQYHHSPYIYTFGGGTKLEIK	0.806 OD450nm	0.988 ratio to WT
